# Reference: patent publication US20220332804A1 (CSL INNOVATION, published 2022)
# T1: human C2 Y328A (human, UniProt P06681 21-752)
# T1 sequence: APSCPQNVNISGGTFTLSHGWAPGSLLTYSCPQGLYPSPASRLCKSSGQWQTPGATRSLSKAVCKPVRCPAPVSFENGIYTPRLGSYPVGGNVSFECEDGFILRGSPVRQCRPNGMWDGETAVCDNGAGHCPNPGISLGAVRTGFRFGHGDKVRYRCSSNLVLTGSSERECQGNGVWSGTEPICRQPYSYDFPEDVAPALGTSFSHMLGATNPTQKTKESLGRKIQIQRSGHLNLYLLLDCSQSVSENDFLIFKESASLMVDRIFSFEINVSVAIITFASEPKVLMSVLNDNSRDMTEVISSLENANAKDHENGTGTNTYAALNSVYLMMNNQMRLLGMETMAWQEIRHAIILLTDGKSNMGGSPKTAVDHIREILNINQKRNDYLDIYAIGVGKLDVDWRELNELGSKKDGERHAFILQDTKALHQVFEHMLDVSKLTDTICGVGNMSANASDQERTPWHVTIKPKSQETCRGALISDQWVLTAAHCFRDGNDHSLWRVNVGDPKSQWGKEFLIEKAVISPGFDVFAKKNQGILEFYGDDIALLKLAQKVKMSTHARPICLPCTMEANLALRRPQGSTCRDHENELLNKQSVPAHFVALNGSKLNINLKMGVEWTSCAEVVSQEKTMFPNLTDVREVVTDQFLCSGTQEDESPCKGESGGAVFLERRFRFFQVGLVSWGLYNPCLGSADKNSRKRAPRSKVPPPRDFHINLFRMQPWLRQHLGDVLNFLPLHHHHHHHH
# T2: human C2 N325A (human, UniProt P06681 21-752)
# T2 sequence: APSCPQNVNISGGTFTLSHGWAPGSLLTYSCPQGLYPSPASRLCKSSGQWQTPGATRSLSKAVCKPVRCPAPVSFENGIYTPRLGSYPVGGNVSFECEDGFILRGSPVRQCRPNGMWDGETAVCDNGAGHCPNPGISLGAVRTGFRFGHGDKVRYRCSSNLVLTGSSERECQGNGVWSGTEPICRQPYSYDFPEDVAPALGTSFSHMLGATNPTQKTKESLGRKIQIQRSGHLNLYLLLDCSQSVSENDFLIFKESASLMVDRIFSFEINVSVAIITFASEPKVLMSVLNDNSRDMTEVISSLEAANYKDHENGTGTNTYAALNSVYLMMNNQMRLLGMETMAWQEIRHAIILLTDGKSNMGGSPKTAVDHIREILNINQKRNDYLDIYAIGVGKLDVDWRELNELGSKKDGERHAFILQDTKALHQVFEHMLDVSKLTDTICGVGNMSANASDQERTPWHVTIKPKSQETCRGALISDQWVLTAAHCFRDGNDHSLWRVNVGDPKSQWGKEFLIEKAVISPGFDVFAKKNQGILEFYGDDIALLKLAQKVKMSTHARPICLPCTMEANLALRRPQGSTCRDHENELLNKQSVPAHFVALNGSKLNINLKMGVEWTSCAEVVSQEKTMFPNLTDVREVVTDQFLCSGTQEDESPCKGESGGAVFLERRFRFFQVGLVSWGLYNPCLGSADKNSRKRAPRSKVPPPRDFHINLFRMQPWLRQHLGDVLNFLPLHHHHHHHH
# T3: human C2 K274A (human, UniProt P06681 21-752)
# T3 sequence: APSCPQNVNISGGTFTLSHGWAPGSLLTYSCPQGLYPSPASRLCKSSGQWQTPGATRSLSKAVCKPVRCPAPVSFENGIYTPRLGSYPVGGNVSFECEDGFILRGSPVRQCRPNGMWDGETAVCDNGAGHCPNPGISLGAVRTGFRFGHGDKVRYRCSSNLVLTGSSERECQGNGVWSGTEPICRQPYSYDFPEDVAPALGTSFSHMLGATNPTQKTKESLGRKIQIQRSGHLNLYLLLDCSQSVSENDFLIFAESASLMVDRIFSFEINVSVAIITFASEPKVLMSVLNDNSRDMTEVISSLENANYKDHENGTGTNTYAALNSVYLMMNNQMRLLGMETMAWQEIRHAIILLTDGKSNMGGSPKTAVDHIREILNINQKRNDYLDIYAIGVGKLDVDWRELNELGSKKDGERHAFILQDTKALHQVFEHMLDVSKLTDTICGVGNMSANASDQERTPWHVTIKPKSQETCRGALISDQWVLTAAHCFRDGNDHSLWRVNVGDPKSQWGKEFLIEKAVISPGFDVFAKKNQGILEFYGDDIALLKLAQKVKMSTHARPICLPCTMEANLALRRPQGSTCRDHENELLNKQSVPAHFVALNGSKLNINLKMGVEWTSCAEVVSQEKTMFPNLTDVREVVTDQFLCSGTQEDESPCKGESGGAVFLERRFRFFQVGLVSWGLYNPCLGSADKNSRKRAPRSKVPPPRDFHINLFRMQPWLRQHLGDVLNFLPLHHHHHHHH
# T4: human C2 F270A (human, UniProt P06681 21-752)
# T4 sequence: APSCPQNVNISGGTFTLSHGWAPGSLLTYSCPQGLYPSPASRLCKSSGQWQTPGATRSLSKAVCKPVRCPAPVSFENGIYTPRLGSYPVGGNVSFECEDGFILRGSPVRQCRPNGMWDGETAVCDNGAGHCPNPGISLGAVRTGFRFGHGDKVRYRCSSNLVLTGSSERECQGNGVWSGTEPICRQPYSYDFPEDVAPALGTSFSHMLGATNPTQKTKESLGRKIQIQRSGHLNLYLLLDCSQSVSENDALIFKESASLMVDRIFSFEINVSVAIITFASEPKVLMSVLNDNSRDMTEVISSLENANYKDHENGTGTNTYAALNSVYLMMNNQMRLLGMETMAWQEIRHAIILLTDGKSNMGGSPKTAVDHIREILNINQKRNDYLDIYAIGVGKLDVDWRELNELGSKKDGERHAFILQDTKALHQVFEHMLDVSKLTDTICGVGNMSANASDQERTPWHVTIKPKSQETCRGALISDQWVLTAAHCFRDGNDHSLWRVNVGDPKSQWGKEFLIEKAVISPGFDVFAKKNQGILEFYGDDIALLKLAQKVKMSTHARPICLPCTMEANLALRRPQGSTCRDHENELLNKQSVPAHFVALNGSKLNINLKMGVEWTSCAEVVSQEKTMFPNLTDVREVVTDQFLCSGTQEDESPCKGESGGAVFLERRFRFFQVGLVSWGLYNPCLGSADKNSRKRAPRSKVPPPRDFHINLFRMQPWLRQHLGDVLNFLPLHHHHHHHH
# Key:
# Assay in all cases: SPR, antibody captured, C2 as analyte;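 further: biacore at 37 °C, anti-C2 mAbs held by immobilised goat anti-human IgG, C2 alanine or serine mutants injected, double-referenced sensorgrams fitted to a 1:1 kinetic or steady-state model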
# [1] = molecular target: T1, human C2 Y328A
# [2] = molecular target: T2, human C2 N325A
# [3] = molecular target: T3, human C2 K274A
# [4] = molecular target: T4, human C2 F270A
binder,measurement,setting,value
"RF16-242 (antibody, human IgG4 S228P, lambda, V domains shown, pH-dependent anti-C2 antibody from a phage display library) VH: EVQLLQSGAEVKKPGESLKISCKGSGYSFTSYWIGWVRQMPGKGLEWMGIIYPGDSDTRYSPSFQGQVTISADKSISTAYLQWSSLKASDTAMYYCARRGHYGDYFDYWGQGTLVTVSS VL: SYELTQPPSVSVSPGQTARITCSGDALPKKYAYWYHQKSGQAPVLVIYEDRRRPSEIPERFSGSSSGTMATLTITGAQVEDEGVYFCYSRDRAGNQRVFGGGTQLTVLG",Kd,[1],45.4 nM
same,Kd,[2],39.9 nM
same,Kd,[3],86.9 nM
same,Kd,[4],104 nM
